Data on 2 proteins can be found in patent publication US20220125891.

The series has as its target T1, human Regnase-1 of Example 15 (full length, GST tag cleaved off, BirA recognition sequence on the C-terminal side, biotinylated).
T1 sequence (Q5D1E8 1-599, looked up): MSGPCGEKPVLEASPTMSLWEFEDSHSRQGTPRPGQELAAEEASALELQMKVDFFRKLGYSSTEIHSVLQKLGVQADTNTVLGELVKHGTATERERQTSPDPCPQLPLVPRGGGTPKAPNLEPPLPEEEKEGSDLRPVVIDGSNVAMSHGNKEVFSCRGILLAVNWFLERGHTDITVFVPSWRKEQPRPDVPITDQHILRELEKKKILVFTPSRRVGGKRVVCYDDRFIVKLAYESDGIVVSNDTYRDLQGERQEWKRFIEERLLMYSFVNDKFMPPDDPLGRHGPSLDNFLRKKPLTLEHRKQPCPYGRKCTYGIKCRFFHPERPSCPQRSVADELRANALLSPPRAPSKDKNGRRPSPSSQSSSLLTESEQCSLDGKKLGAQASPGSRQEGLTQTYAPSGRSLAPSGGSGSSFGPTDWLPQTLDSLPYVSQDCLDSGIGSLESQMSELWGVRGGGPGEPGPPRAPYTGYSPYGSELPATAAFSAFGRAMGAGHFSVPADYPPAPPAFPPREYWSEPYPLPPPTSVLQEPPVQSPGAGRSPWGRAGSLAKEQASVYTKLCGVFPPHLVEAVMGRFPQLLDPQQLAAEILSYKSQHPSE

B1: TBK1 (manufactured by SignalChem) (protein)
chain: MQSTSNHLWLLSDILGQGATANVFRGRHKKTGDLFAIKVFNNISFLRPVDVQMREFEVLKKLNHKNIVKLFAIEEETTTRHKVLIMEFCPCGSLYTVLEEPSNAYGLPESEFLIVLRDVVGGMNHLRENGIVHRDIKPGNIMRVIGEDGQSVYKLTDFGAARELEDDEQFVSLYGTEEYLHPDMYERAVLRKDHQKKYGATVDLWSIGVTFYHAATGSLPFRPFEGPRRNKEVMYKIITGKPSGAISGVQKAENGPIDWSGDMPVSCSLSRGLQVLLTPVLANILEADQEKCWGFDQFFAETSDILHRMVIHVFSLQQMTAHKIYIHSYNTATIFHELVYKQTKIISSNQELIYEGRRLVLEPGRLAQHFPKTTEENPIFVVSREPLNTIGLIYEKISLPKVHPRYDLDGDASMAKAITGVVCYACRIASTLLLYQELMRKGIRWLIELIKDDYNETVHKKTEVVITLDFCIRNIEKTVKVYEKLMKINLEAAELGEISDIHTKLLRLSSSQGTIETSLQDIDSRLSPGGSLADAWAHQEGTHPKDRNVEKLQVLLNCMTEIYYQFKKDKAERRLAYNEEQIHKFDKQKLYYHATKAMTHFTDECVKKYEAFLNKSEEWIRKMLHLRKQLLSLTNQCFDIEEEVSKYQEYTNELQETLPQKMFTASSGIKHTMTPIYPSSNTLVEMTLGMKKLKEEMEGVVKELAENNHILERFGSLTMDGGLRNVDCL
For B1, the “phosphorylation detected by Western blotting” value was “it was confirmed that human Regnase-1 is phosphorylated by IKKβ and TBK1”.

B2: IKKβ (manufactured by SignalChem) (protein)
chain: MSWSPSLTTQTCGAWEMKERLGTGGFGNVIRWHNQETGEQIAIKQCRQELSPRNRERWCLEIQIMRRLTHPNVVAARDVPEGMQNLAPNDLPLLAMEYCQGGDLRKYLNQFENCCGLREGAILTLLSDIASALRYLHENRIIHRDLKPENIVLQQGEQRLIHKIIDLGYAKELDQGSLCTSFVGTLQYLAPELLEQQKYTVTVDYWSFGTLAFECITGFRPFLPNWQPVQWHSKVRQKSEVDIVVSEDLNGTVKFSSSLPYPNNLNSVLAERLEKWLQLMLMWHPRQRGTDPTYGPNGCFKALDDILNLKLVHILNMVTGTIHTYPVTEDESLQSLKARIQQDTGIPEEDQELLQEAGLALIPDKPATQCISDGKLNEGHTLDMDLVFLFDNSKITYETQISPRPQPESVSCILQEPKRNLAFFQLRKVWGQVWHSIQTLKEDCNRLQQGQRAAMMNLLRNNSCLSKMKNSMASMSQQLKAKLDFFKTSIQIDLEKYSEQTEFGITSDKLLLAWREMEQAVELCGRENEVKLLVERMMALQTDIVDLQRSPMGRKQGGTLDDLEEQARELYRRLREKPRDQRTEGDSQEMVRLLLQAIQSFEKKVRVIYTQLSKTVVCKQKALELLPKVEEVVSLMNEDEKTVVRLQEKRQKELWNLLKIACSKVRGPVSGSPDSMNASRLSQPGQLMSQPSTASNSLPEPAKKSEELVAEAHNLCTLLENAIQDTVREQDQSFTALDWSWLQTEEEEHSCLEQAS
As for B2, the “phosphorylation detected by Western blotting” value is “it was confirmed that human Regnase-1 is phosphorylated by IKKβ and TBK1”.
